Data as given in patent US20260125457A1 (Janssen / Centocor, published 2026).

Columns and labels:
[1] = molecular target: T1, Avi/his-CalR-Ins5 (CALRW28.004) (human, UniProt P27797 18-417, limits assumed); assay: SPR, forced degradation: pH 5.0
T1 construct: also called human CALRins5
T1 sequence (looked up): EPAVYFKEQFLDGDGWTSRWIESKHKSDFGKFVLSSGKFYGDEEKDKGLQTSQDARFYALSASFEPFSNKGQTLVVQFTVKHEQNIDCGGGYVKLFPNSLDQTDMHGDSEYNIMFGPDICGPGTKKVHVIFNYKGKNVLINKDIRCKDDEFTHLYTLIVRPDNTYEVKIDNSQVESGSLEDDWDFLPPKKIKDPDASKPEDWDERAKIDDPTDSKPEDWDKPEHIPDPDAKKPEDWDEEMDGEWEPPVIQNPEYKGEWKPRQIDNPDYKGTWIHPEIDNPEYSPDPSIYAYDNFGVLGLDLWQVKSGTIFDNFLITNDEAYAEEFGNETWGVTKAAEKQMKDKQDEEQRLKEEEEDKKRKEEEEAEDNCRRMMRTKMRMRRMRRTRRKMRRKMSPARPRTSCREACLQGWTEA

[2] = molecular target: T2, CD3EG-HSA-6xHis (CD3W220.002) (human, UniProt P07766 22-118; P09693 23-103); assay: SPR, forced degradation: pH 5.0
T2 construct: also called human CD3; not shown: human serum albumin (HSA); 6xHis tag
T2 sequence (P07766 other isoform, or with tags, fused parts or gaps): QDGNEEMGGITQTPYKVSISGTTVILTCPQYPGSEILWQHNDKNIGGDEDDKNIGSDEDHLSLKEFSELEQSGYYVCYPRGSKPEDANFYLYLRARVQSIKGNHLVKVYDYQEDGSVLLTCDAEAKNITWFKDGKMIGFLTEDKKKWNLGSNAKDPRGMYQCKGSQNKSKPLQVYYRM

[3] = molecular target: T3, Flag/6xhis-CALRdel52 (CALRW12.007) (human, UniProt P27797 18-417); assay: SPR, forced degradation: pH 5.0
T3 construct: also called human CALRdel52
T3 sequence (looked up): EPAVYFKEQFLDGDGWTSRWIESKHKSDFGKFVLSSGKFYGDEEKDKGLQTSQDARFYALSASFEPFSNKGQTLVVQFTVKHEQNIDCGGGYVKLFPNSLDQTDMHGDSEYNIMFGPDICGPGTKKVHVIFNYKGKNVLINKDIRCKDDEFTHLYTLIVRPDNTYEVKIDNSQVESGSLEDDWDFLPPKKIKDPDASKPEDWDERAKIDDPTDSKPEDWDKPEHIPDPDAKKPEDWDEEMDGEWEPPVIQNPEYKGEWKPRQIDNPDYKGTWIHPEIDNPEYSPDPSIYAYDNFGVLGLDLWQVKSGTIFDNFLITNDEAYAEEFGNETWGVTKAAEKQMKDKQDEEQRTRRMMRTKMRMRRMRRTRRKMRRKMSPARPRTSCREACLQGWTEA

[4] = molecular target: CALRmut on CD34+ cells isolated from CALRmut MPN patients; assay: cell-based or functional assay
[5] = molecular target: T4, CALRins5 (mutant calreticulin, 5 base pair insertion, Type 2) expressed with MPL on engineered cancer cells (UniProt P27797 18-417); assay: cell-based or functional assay
T4 sequence (looked up): T1 sequence (looked up)

[6] = molecular target: T5, CALRdel52 (mutant calreticulin, 52 base pair deletion, Type 1) expressed with MPL on engineered cancer cells (UniProt P27797 18-417); assay: cell-based or functional assay
T5 sequence (looked up): T3 sequence (looked up)

[7] = molecular target: T4, CALRins5 (mutant calreticulin, 5 base …); assay: flow cytometry on ELF-153 MPL CALRins5 cells, 1 h at 37 C, AF647 secondary antibody, Geometric Mean
Protocol: FIGS. 4A-4F depict graphs of CALRmutxCD3 bispecific antibody C3CRB73 binding to cells CALRmut-negative or CALRmut-positive. Flow cytometry was used to evaluate C3CRB73 binding to CALRmut-negative and CALRmut-positive cancer cells in vitro. C3CRB73 and NullxCD3 control were tested on a panel of cell lines, engineered to express MPL and CALRmut, after 1 hour 37° C. incubation, with subsequent incubation with secondary AF647-labeled antibody. Geometric mean fluorescence intensity of AF647 was measured to determine antibody binding. […] Abbreviations: CALR, calreticulin; CALRmut, mutant calreticulin; CD, cluster of differentiation; del, deletion; ins, insertion; MPL, thrombopoietin receptor; spFv, stapled single chain fragment variable; wt, wild type.

[8] = molecular target: T6, wild-type CALR (CALRW14.001) (UniProt P27797 18-417, limits assumed); assay: SPR
T6 sequence (looked up): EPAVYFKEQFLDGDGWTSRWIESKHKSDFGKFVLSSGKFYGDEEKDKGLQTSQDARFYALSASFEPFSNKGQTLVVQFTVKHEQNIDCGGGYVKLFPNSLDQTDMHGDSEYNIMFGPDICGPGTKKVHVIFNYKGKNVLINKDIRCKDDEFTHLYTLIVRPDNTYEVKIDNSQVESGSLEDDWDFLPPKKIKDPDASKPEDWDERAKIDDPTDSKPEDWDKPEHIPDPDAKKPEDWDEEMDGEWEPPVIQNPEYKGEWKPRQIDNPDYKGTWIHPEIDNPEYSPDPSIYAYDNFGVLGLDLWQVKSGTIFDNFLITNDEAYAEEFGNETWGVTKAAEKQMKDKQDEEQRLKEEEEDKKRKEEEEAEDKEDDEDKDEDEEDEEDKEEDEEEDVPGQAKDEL

cyno FcRn = cyno FcRn (cynomolgus monkey, UniProt Q8SPV9 24-297; Q8SPW0 21-119, limits assumed); assay: FcRn binding, method not stated
Chain of cyno FcRn (Q8SPV9 24-297 limits assumed, chain 1 of 2): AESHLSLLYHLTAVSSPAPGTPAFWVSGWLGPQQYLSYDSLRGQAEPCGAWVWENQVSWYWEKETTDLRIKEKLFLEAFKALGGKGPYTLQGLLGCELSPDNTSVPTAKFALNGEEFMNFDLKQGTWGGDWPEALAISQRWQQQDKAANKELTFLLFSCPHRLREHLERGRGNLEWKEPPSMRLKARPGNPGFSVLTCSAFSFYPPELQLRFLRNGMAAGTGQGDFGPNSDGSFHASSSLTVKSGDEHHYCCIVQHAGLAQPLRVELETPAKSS
Chain of cyno FcRn (Q8SPW0 21-119 limits assumed, chain 2 of 2): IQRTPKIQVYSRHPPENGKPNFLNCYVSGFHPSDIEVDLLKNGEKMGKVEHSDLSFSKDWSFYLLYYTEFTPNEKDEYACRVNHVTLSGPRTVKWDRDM

human FcRn = molecular target: T7, human FcRn (human, UniProt P55899 24-297; P61769 21-119, limits assumed); assay: FcRn binding, method not stated
T7 construct: Beta-2-microglobulin is not mentioned
T7 sequence (P55899 24-297 limits assumed, chain 1 of 2): as the sequence (Q8SPV9 24-297 limits assumed, chain 1 of 2) above, with D39N, Q44E, S99G, G189S, N190S, M217L, T269S counted along it
T7 sequence (P61769 21-119 limits assumed, chain 2 of 2): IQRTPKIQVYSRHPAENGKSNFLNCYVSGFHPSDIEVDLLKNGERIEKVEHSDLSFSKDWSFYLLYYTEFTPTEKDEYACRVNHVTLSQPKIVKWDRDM

[9] = molecular target: T1, Avi/his-CalR-Ins5 (CALRW28.004); assay: SPR, forced degradation: Metal Ox
[10] = molecular target: T2, CD3EG-HSA-6xHis (CD3W220.002); assay: SPR, forced degradation: Metal Ox
[11] = molecular target: T3, Flag/6xhis-CALRdel52 (CALRW12.007); assay: SPR, forced degradation: Metal Ox

B1: C3CRB73 CALRmut x CD3 bispecific antibody (bispecific antibody, human IgG1, kappa, L234A L235A)
heavy: EVQLLESGGGLVQPGGSLRLSCAVSGIDLSNNAISWVRQAPGKGLEYVGVIGNTGDTYYADSAKGRFTISRDSSKTTLYLQMNSLRAEDTAVYFCVRGPPSYSSSVKNIWGQGTLVTVSSASTKGPSVFPLAPSSKSTSGGTAALGCLVKDYFPEPVTVSWNSGALTSGVHTFPAVLQSSGLYSLSSVVTVPSSSLGTQTYICNVNHKPSNTKVDKKVEPKSCDKTHTCPPCPAPEAAGGPSVFLFPPKPKDTLMISRTPEVTCVVVSVSHEDPEVKFNWYVDGVEVHNAKTKPREEQYNSTYRVVSVLTVLHQDWLNGKEYKCKVSNKALPAPIEKTISKAKGQPREPQVYTLPPSREEMTKNQVSLSCAVKGFYPSDIAVEWESNGQPENNYKTTPPVLDSDGSFFLVSKLTVDKSRWQQGNVFSCSVMHEALHNRFTQKSLSLSPGK
light: DIQMTQSPSSVSASVGDRVTITCQSSQSVYNNNWLSWLQQKPGKAPKRLIYDASKLESGVPSRFSGSGSGTDFTLTISSVQPEDAATYYCAGGFTGNVYTFGGGTKVEIKRTVAAPSVFIFPPSDEQLKSGTASVVCLLNNFYPREAKVQWKVDNALQSGNSQESVTEQDSKDSTYSLSSTLTLSKADYEKHKVYACEVTHQGLSSPVTKSFNRGEC
scFv: DIQMTQSPSSLSASVGDRVTITCRARQSIGTAIHWYQQKPGCAPKLLIKYASESISGVPSRFSGSGSGTDFTLTISSLQPEDFATYYCQQSGSWPYTFGQGTKLEIKGGGSGGSGGCPPCGGSGGEVQLVESGGGLVKPGGSLRLSCAASGFTFSRYNMNWVRQAPGKGLEWVSSISTSSNYIYYADSVKGRFTFSRDNAKNSLDLQMSGLRAEDTAIYYCTRGWGPFDYWGCGTLVTVSSEPKSSDKTHTCPPCPAPEAAGGPSVFLFPPKPKDTLMISRTPEVTCVVVSVSHEDPEVKFNWYVDGVEVHNAKTKPREEQYNSTYRVVSVLTVLHQDWLNGKEYKCKVSNKALPAPIEKTISKAKGQPREPQVYTLPPSREEMTKNQVSLWCLVKGFYPSDIAVEWESNGQPENNYKTTPPVLDSDGSFFLYSKLTVDKSRWQQGNVFSCSVMHEALHNHYTQKSLSLSPGK
notes: IgG1-AAS; also called JNJ-88549968; CALRB421 Fab x CD3 spFv
% Active [1]: 98% | Kd [1]: 0.0342 nM | % Active [2]: 100% | Kd [2]: 0.231 nM | % Active [3]: 103% | Kd [3]: 0.114 nM | cytotoxicity EC50, autologous assay, patient CALRmut CD34+ cells [4]: 0.94 nM | cytotoxicity EC90, autologous assay, patient CALRmut CD34+ cells [4]: 7.58 nM | maximal cytotoxicity, autologous assay, CD34+ cells of one donor without detected binding [4]: 68% | maximum cytotoxicity, autologous assay, patient CALRmut CD34+ cells [4]: 69% | cytotoxicity EC50 (nM), whole blood of CALRmut MPN patients, ELF-153 MPL CALRins5 [5]: 0.64 nM | cytotoxicity EC50 (nM), whole blood of healthy donors, ELF-153 MPL CALRins5 [5]: 0.32 nM | cytotoxicity EC50 (nM), whole blood of CALRmut MPN patients, ELF-153 MPL CALRdel52 [6]: 0.66 nM | cytotoxicity EC50 (nM), whole blood of healthy donors, ELF-153 MPL CALRdel52 [6]: 0.51 nM | EC50 (read off the curve) [7]: ~4 nM | binding result [8]: no binding (tested: 300 nM) | Kd (cyno FcRn): 900 nM | Kd (human FcRn): 1900 nM | % Active [9]: 94% | Kd [9]: 0.0356 nM | % Active [10]: 91% | Kd [10]: 0.272 nM | % Active [11]: 97% | Kd [11]: 0.063 nM
